Assays:
[1] = tested on: MUC4 mRNA in human corneal epithelial cells; assay: RT-qPCR of mucin mRNA (MUC4) under high osmotic pressure; format: cell-based; conditions: HCEC, 450 mOsM, 10 to 200 ng/ml, particularly 50 to 200 ng/ml, 24 hours; compared to the untreated group
Method: (§1) First, the human corneal epithelial cells (HCECs, 5th passage) were seeded onto 6 wells at a density of […]. After 24 hours, the HCECs were pre-treated with a medium with different osmotic pressures (314 and 450 mOsM). After 48 hours of incubation, the cells were treated with the composition of the present disclosure having different concentrations of rhHAPLN1 (0, 5, 10, 20, 50, 100, and 200 ng/ml) and Cyclosporine A (0.1 μM), as a control drug, for 24 hours. Then, the cells were washed and sampled to perform RT-qPCR (FIG. 5A).
(§2) Total mRNA was purified from the HCECs by using a Qiagen kit. A cDNA was synthesized by using the iScript cDNA synthesis kit. Subsequently, RT-qPCR was performed and result data was expressed as relative expression levels (fold) (FIGS. 5B to 5C).

[2] = tested on: inflammatory factors (Interleukins, CCL/CXCL family, Chitinase 3-like 1) in human corneal epithelial cells; assay: Human XL cytokine array of culture broth under high osmotic pressure; format: cell-based; conditions: HCEC, 450 mOsM, 24 hours
Method: As one of the effects the HAPLN1 protein-containing composition of the present disclosure on the relief of dry eye disease, an effect on the relief of inflammation was verified by using Human XL cytokine array (R&D Systems. ARY022B) based on expression levels of inflammatory factors (Interleukins, CCL/CXCL family, and […]).
First, the human corneal epithelial cells after 4th passage were seeded onto 6 wells and incubated for 24 hours under low osmotic pressure conditions (314 mOsM). Subsequently, the cells were incubated under high osmotic pressure conditions (450 mOsM) for 48 hours and treated with different concentrations (i.e., 10 μg/ml HAPLN 1 μl to 1 ml media->working concentration of 10 ng/ml) of the composition according to the present disclosure. Then, the cells were further incubated for 24 hours, and the culture broth was recovered therefrom, followed by an assay on the expression level of each marker by using Human XL cytokine array (R&D Systems. ARY022B). According to each of the graphs of FIG. 3B illustrating relative expression levels of the markers of the inflammatory factors in the different concentrations of the HAPLN1 protein, it was confirmed that secretion of inflammatory factors such as IL-6, IL-17A, CCL20, CXCL10, CCL5, CD54, and CD176 increased under the high osmotic pressure conditions (450 mOsM).

[3] = tested on: CCL-20 secreted by human corneal epithelial cells; assay: CCL-20 ELISA under high osmotic pressure; format: cell-based; conditions: HCEC, 450 mOsM, 5, 10, 20, 50, and 100 ng/ml
Method: In addition, the activity of NFκB that is an important transcription factor in expression of the inflammatory factors was identified by Western blot analysis (FIG. 4B). Preparation of the experiment was performed under the same conditions of those of Cytokine array performed as described above and the ELISA was performed according to the manufacturer's instructions.

rabbit dry eye model [4] = assay: Corneal fluorescein score, 0.1% benzalkonium chloride-induced dry eye disease model; format: in vivo, New Zealand white rabbits
Method: Corneal fluorescein score assay and tear volume assay were respectively performed on eyeballs of rabbits treated with the compositions of Preparation Examples 1, 2, and 3 prepared in Example 7 above by using a 0.1% benzalkonium chloride (BAC)-induced dry eye disease (DED) model.
(§3) One drop (0.05 ml) of 0.1% benzalkonium chloride (BAC) was administered to both eyes of rabbits twice a day (9:00 and 17:00) for 14 days, and then induction of dry eye was identified by examination of eyes, and the rabbits were classified into groups.
(§4) The test substance was dropped into the groups of the rabbit model twice a day (8:30 and 16:30) (Day 15 to 30 (total of 16 days)).
(§5) Anesthesia was induced by intramuscular injection of Xylazine and Ketamine, and then one drop of Alcaine Eye Drop was administered and tear and the eye drop remaining therein were removed by using Weck-cel cellulose spear. After putting STT paper on the lower eyelid, a length of a wet region for 5 minutes was measured (STT-2). In addition, stability of the tear film was tested by measuring tear film break up time (TFBUT, measurement of time taken for the tear film to break down). Furthermore, conditions of the cornea and fluorescent staining were identified by a slit test.

[5] = tested on: CD11 b in lacrimal glands; assay: CD11 b immunofluorescence in lacrimal gland, mouse dry eye model; format: in vivo, C57BL/6; conditions: after 16 days of drug treatment
Method: In this example, expression of CD11 b was identified in lacrimal glands in order to identify in vivo anti-inflammatory effect of the HAPLN1 protein-containing composition of the present disclosure. That is, on the 2nd day after 16 days of drug treatment, eyes were enucleated and paraffin blocked. IHC-IF was performed on a section slide, and expression (green) of CD11 b was identified by using an Anti-CD11 b antibody. FIG. 13B is a graph illustrating quantified expression levels of FIG. 13A (FIG. 13B).

rabbit dry eye model [6] = assay: Tear film break up time (TFBUT), benzalkonium chloride-induced dry eye disease model; format: in vivo, New Zealand white rabbits
Method: as §3, §4, §5
In this example, a method of measuring time until black spots appeared at fluorescent stained regions after applying one drop of sodium fluorescein to eyeballs. The black spots may appear within several seconds after blinking and occurs very quickly under the conditions of dry eye disease. That is, stability of the tear film was measured by measuring the tear film break up time (TFBUT, measurement of time taken for the tear film to break down).

[7] = tested on: MUC16 mRNA in human corneal epithelial cells; assay: RT-qPCR of mucin mRNA (MUC16) under high osmotic pressure; format: cell-based; conditions: HCEC, 450 mOsM, 20 to 200 ng/ml, particularly 50 to 200 ng/ml, 24 hours; compared to the untreated group
Method: as §1, §2

rabbit dry eye model [8] = assay: Tear volume assay (STT), benzalkonium chloride-induced dry eye disease model; format: in vivo, New Zealand white rabbits
Method: as §3, §4, §5

B1: hyaluronan and proteoglycan link protein 1 (HAPLN1) (protein, listed as Homo sapiens)
chain: MKSLLLLVLISICWADHLSDNYTLDHDRAIHIQAENGPHLLVEAEQAKVFSHRGGNVTLPCKFYRDPTAFGSGIHKIRIKWTKLTSDYLKEVDVFVSMGYHKKTYGGYQGRVFLKGGSDSDASLVITDLTLEDYGRYKCEVIEGLEDDTVVVALDLQGVVFPYFPRLGRYNLNFHEAQQACLDQDAVIASFDQLYDAWRGGLDWCNAGWLSDGSVQYPITKPREPCGGQNTVPGVRNYGFWDKDKSRYDVFCFTSNFNGRFYYLIHPTKLTYDEAVQACLNDGAQIAKVGQIFAAWKILGYDRCDAGWLADGSVRYPISRPRRRCSPTEAAVRFVGFPDKKHKLYGVYCFRAYN
[1]
  expression level of MUC4 (FIG. 5B): significantly increased
[2]; 10 to 100 ng/ml
  expression levels of the inflammatory factors, compared with untreated groups: lower than that of untreated groups
[2]
  expression levels of IL-17A, Fas ligand/CD178, FGF-7, FGF-19, Angiogenin, RBP-4, and Chitinase 3-like 1: reduced to the levels of normal cells
  expression levels of various inflammatory factors, relative to normal group (1.0): decreased to the level of the normal group or less
[3]
  expression levels of the inflammatory factor CCL20 (ELISA): relatively lower than those of the HAPLN1 protein-untreated groups
Rabbit dry eye model [4]; after 10 days
  reduction of CFS level compared with Restasis: more than by Restasis
Rabbit dry eye model [4]; eye drop 0.5, 5, 50 μg/ml b.i.d., regardless of the concentration
  CFS level: consistently decreased
[5]
  expression level of CD11 b compared with Cyclosporine A: reduced the expression level of CD11 b more than Cyclosporine A
  expression of CD11 b in lacrimal glands: decreased
Rabbit dry eye model [6]; after 10 days, regardless of the concentration of HAPLN1
  increase of TFBUT compared with Restasis: more than by Restasis
Rabbit dry eye model [6]; eye drop b.i.d., dry eye model less than 10 seconds
  tear film break up time (TFBUT): continuously increased
Rabbit dry eye model [6]; high concentration (50 μg/ml)
  tear film break up time (TFBUT): ≥ 30 s
[7]
  expression level of MUC16 (FIG. 5C): significantly increased
Rabbit dry eye model [8]; after 10 days
  tear volume compared with Restasis: increased the tear volume far more than Restasis
Rabbit dry eye model [8]; concentration-dependent, from the 5th day, more than Restasis
  tear volume: consistently increased
